Results reported in the DeepSol protein solubility set.

Assay: soluble on expression in E. coli; label from the status in PepcDB or PDB records

**Q.** For “MGSDKIHHHHHHMTNMKQLCLICLAFICLFFLDSCGNKNTFRVEGSIAGYEDTAQVYLTKIIGSDLSVLDSVNPDRKGRFSFVAQADSTPSFYQIKLRKQHINFAARIGSEINIQVGRNSFSDYVIEDNQGPDNNNIRKIALLKEQADNRLDHLYRSYQENKLDASQYQDTIAKVIDEFKTTLRNDFIFQDPKSPASYFALFQQKDGLLYFNVYDPMDAKAFAAVATAYDTYYPTSSYTKSVRDLSLLGIAAMRRDRVAKDITTRKIEVKDIPETILIDRKGNEQPLSKVVETNDRVLIVFTSYQAEWSPSLVKEQRALYQRHCNNGFQIYEISVDKDLYFWQNATRTLPWITVNDSEGKAALSFNVRSLPTFFLIQDGELKRLQRLESL”, which “soluble on expression in E. coli” value is on record?
**A.** not soluble

**Q.** With “MGSDKIHHHHHHLTVPKKLLLSDLLKHNVRCENGIDHGPVITPWMHPPVHRILGFISRPSNLRLEREVWRLDQLKGINQQEVYVKGVCSVSDEQTLDRFPTLMNANVFNKSGQKIGLIADFLFEPKKGNIQYYLVSRSNPLIPGTSRWLLSIDQIIDKQPGSISCDIETFEDLPIQKASLKEEFLSKSRKWKAQFQDLTYNASDKLEGWIDDQISESDNDSYEMLNDDPSYDDWIDNLDIDSSEEFNRMNKSKKNTNSTNERDLDPWI” as the sequence, how does the “soluble on expression in E. coli” value read?
**A.** not soluble

**Q.** Which “soluble on expression in E. coli” value does the source give for “MAHHHHHHMPGRPGSAEELYGLVCALQKQQQLTQVDLRAVQRRTEALRQELHCQEALIAEEQAKREELAAKHTPGDAELRLAEAHARGAARASADAAQELRGARRAFLQKCHAQVLSVGKGPTDPRRSGAPVAPSNCTPLSSAADESSSGSLSAVGLGPRREATLMPAAAVRQLLLLLREKLMRCIEVGSTAVPAPFVVASVVAPATEGGSSEQPRDCRPSDEQGAAAKVATSVMSPLTAAKSPHGPPSKSVTDACVRGASDDQSPPREKKSIGFAPECCFERVTAVPAANVNRGTRETWLTEGAPGACGSTAVVPPAANVTLDGDNHPSNACLRNDSRPRTQRFDGHFTVRVASRSATLVAEAAAMGAKRQRASEAAIAAQSSPPKAARADGDKGVSASRAPQGAGVAAAFPPAYTSNRDRLVAPVDLLSPRSAEARRNGSSGSGRRTVWTWTRGTSREP” here?
**A.** not soluble

**Q.** With “YTSLIRRVEHAVDSDGSFETGNEVKLSGVGVIGTDERFERVGETYASYYGYESEELVGKHWSELHPSNEVQHIRTHVIPAVRSGGKWTGQSKGLRADETTFTESKMVTALEDGRMLIAVDEIDDSGLAE” as the sequence, how does the “soluble on expression in E. coli” value read?
**A.** not soluble

**Q.** For “MGSDKIHHHHHHMTRKFGEIAFTPEVQAAQEERGSRQTYDRYIANGPANDTITPNIAKFIAQLEGFYLGTVSSNGYPYIQFRGGSPGFLKVLDEKTLGFADFSGNLQYITVGNLSSNDKAFLFLMDYRHRQRIKIWGRAEYIEGESSLLEQVRVADYPAQVERAILFHVEATSENCPQHIPVRYSEREVKAMMAPLENRIAELEQQLSEQNSSSKTGKQLPSRD”, which “soluble on expression in E. coli” value is on record?
**A.** not soluble

**Q.** For “MGSDKIHHHHHHMTEQVVATETVNLSQDSLQIAAYLAQPQAPGSYPGVVVLQEIFGVNGHIRDVTERIAKLGYVAIAPALFQRQAPGFETGYTPQDIEVGRGYAMQTKASELLNDIQAAIDYLKTLPQVKQNGFGCIGFCFGGHVAYLAATLPDIKATASFYGAGIATRTFGGGNPTVTRTPEIKGTLYGFFGTEDASIPPEQIDQIETELEKYNISHRVFRYDGADHGFFCDRRASYNPQAAADAWEQVQQLFKTVLTT”, which “soluble on expression in E. coli” value is on record?
**A.** not soluble

**Q.** Which “soluble on expression in E. coli” value does the source give for “MAHHHHHHMWHTTVMVPTQHWGAVGYFPAIVTRPSQLNFSGSYDPVAWSGPPSYPGQFAAGNRRQLGQQEQYRQPYSNYHNRPQPHRQMHAQPPYMAHRMTVNAVTYGFGDPTLGVYRTSADGWKYRGAYGGGRRPSPPFQAMVTRPLVSSNGRRRRGTHARANMAGGWGDLDTYDLYAFEAGENLDVDNMSYEELLELTERLGMVERGVQPARLNELRVVITPTHVKQQLESDRMVAGRNGLVKGGANIDQEEKEANEKMCEEDPIKCCICLDGVLVGQTATRMPCCRNFLHASCAAPWFV” here?
**A.** not soluble

**Q.** For “MKVIFNADDFGLTQGVNQGIVKAHLDGVVKSTTLMVGMPAEQHAVQLAKQLPDLKIGLHLRFTAGRPLTGERNLTDEHGVFTAYRDFWQRRDYQPEAIYHEAIAQVEHFLKLGLTLSHLDSHHHAHTHPQLAPIIYEVAKKYHVPLRDIGMAGEEAFGCRYHFTDFFYDQRLGIDPLMKHLLELKERFDLVEVMCHPAFVDPLLEKCSGYAKQREEELHILTSAQLIQLLVAHDIEITDYSALISAPLHSCV”, which “soluble on expression in E. coli” value is on record?
**A.** not soluble

**Q.** For “MEIGIIGTGNIGGTLARKLIAAGHQVRVANSKGIHGVQSFADEIGATAVDVYGAVKGADAIILSIPLPALASLPNGFFDDLPETVPLIDTSNYYPGLRDPLIPEIDDGMTESVWVSQQLSHPVIKAFNNILAWSLAELGTPKGSASRLAIAVAGDNATLKQIVMNLVDDTGFDAIDAGSLEESWRQQPSTPAYCCDYDAETMKKGLTAAVRGEAASKRDRLPELFGKLGANPTHEDIVAMNRSLNPLEHHHHHH”, which “soluble on expression in E. coli” value is on record?
**A.** soluble

**Q.** For “MEGSSSTIARKTWELENSILTVDSPDSTSDNIFYYDDTSQTRFQQEKPWENDPHYFKRVKISALALLKMVVHARSGGTIEIMGLMQGKTDGDTIIVMDAFALPVEGTETRVNAQDDAYEYMVEYSQTNKLAGRLENVVGWYHSHPGYGCWLSGIDVSTQRLNQQHQEPFLAVVIDPTRTVSAGKVEIGAFRTYSKGYKPPDEPVSEYQTIPLNKIEDFGVHCKQYYSLDVTYFKSSLDSHLLDLLWNKYWVNTLSSSPLLGNGDYVAGQISDLAEKLEQAESHLVQSRFGGVVPSSLHKKKEDESQLTKITRDSAKITVEQVHGLMSQVIKDELFNSMRQSNNKSPTDSSDPDPMITY”, which “soluble on expression in E. coli” value is on record?
**A.** soluble

**Q.** For “MNIVAKPTSFISGAVDGVVDLKNTYTENQHLKERLEELAQLESEVADLKKENKDLKESLDITDSIRDYDPLNASVISRNPTNWNDQVEIDKGSSDGVKPDMAVTTPSGLIGKVTTTGAKSATVELLTSSDVKNRVSAKVQGKENAFGIINGYDSDTKLLELKQLPYDMKFKKGQKVVTSGLGGKFPAGIFIGTIEKVETDKMGLSQTAFIKPGADMYDLNHVTVLKRSAEAGTTDDDTTSSDTTGGQGSHHHHHH”, which “soluble on expression in E. coli” value is on record?
**A.** soluble

**Q.** For “MRLALFDLDNTLLGGDSDHAWGDYLYQRGILDAATYKSRNDEFYQDYLAGTLNMTDYLNFTLEILGNTDMAQLQEWHREFMRDCIEPIMLPKALELIAKHREAGDKLVVITATNRFVTAPIVARLGIETLLATECEMVDGRYTGRTTGVPCFREGKVTRLNQWLEDNAFSLEDSYFYSDSMNDLPLLEQVANPVAVDPDARLRAEAEQRGWPVITLRS”, which “soluble on expression in E. coli” value is on record?
**A.** not soluble

**Q.** Which “soluble on expression in E. coli” value does the source give for “MAPKKVLLALTSYNDVFYSDGAKTGVFVVEALHPFNTFRKEGFEVDFVSETGKFGWDEHSLAKDFLNGQDETDFKNKDSDFNKTLAKIKTPKEVNADDYQIFFASAGHGTLFDYPKAKDLQDIASEIYANGGVVAAVCHGPAIFDGLTDKKTGRPLIEGKSITGFTDVGETILGVDSILKAKNLATVEDVAKKYGAKYLAPVGPWDDYSITDGRLVTGVNPASAHSTAVRSIDALKN” here?
**A.** soluble

**Q.** With “PEGPEIRRAADNLEAAIKGKPLTDVWFAFPQLKTYQSQLIGQHVTHVETRGKALLTHFSNDLTLYSHNQLYGVWRVVDTGEEPQTTRVLRVKLQTADKTILLYSASDIEMLRPEQLTTHPFLQRVGPDVLDPNLTPEVVKERLLSPRFRNRQFAGLLLDQAFLAGLGNYLRVEILWQVGLTGNHKAKDLNAAQLDALAHALLEIPRFSYATRGQVDENKHHGALFRFKVFHRDGEPCERCGSIIEKTTLSSRPFYWCPGCQH” as the sequence, how does the “soluble on expression in E. coli” value read?
**A.** soluble

**Q.** For “MKEFWVWVEPFDRKIVSVALEAGANAVVIPEKGRVEEVKKVGRITVIAPDGDLKLGEDVVYVLIKGKEDEERAAKYPPNVKVIVETTDWTVIPLENLIAQREELYAVVKNAQEAEVALQTLEKGVKGVVLKSRDINEIKKVGQIVSEHEEKLELVTIKITKILPLGLGDRVCVDTISLLHRGEGMLVGNSSGGMFLVHAETEENPYVAARPFRVNAGAVHMYIRVPNNRTKYLCELKAGDKVMVYDYKGRGRVTYVGRAKVERRPMLLIEGRYENKKLSCILQNAETIRLTKPDGTPISVSELKEGDEVLGYVEEAGRHFGMKVEETIIEKLEHHHHHH”, which “soluble on expression in E. coli” value is on record?
**A.** soluble

**Q.** Which “soluble on expression in E. coli” value does the source give for “MGSDKIHHHHHHMQPRLVIAGTHSGVGKTTVTLGLMAAFVEKGNIVQGFKCGPDYIDPSYHRAVTKRASRNLDSWMVSEDVVNDIFIEGCNGADLSIIEGVMGFYDGKASTSDKGSTADISLLLQAPVLLVVDISGMARSAAAVVKGFQQLNEKVKIAGVILNGAGSERHAEMCSEAIKEACGIPALGYLKKGDVPSIPERHLGLVPALERGEHDSLFSQLAAVVSRQFDLERIERLALEASALSRRTNLFQQTKRPSVVKIAVAYDAAFHFYYEENFTLLRQAGAELVYFSPLRGEDLPSHCDGLYLGGGFPEEFADELSQWIKDHPQLKKRVQSGLPTLAECGGYMFLGEQLTTTKGKTVEMAGVIPMVVQMENKLVSLGYRDVTPLDDSFLLSKGQQIRGHEFHYSKAVYTETERPAYFVKGLFGEGKEGYMSDHLLAGYTHLHFASEPAVATQWVKACEVYKNRRLHRGQVSQ” here?
**A.** not soluble

**Q.** Which “soluble on expression in E. coli” value does the source give for “MGSDKIHHHHHHLRIEQKLWRENTGWSDLSPQVDGLMPQLLIVFGTRKYLQEEVRFEEIKGFYPGAHIFGCSTAGEICATNVFEDALAITALEFEHTRIESRQIHLSQVQNSFQAGEYLASSLTHDDLSHVLVLSDGLHVNGSELLQGLTSSLPPGIAITGGMAGDGVSFEETLVFLDAPPTPDTIAVLGFYGNHLRVGYGSMGGFDPFGPKRLITRSAANVLYEMDGRSALELYKKYLGEHAEGLPATGVFFPLSISGEEVAESLVRTILAVNEEEQSLTFGGDVPTGAYARMMKANLDRLIDGAVTAAESILSVVNNASPELAILISCFGRRSILKQRTEEEVEAVSDVFGSGCMLTGFYSYGEISPFKPGEKPEFHNQTMTITTFREV” here?
**A.** not soluble

**Q.** For “MGSDKIHHHHHHMMSMKIFETTAPHPEASLLTAFSKNALDRFAEKRTEECVAEALKVDGTHIFAFSGNRLVLKHDEQVIDPLFSAYELAELQPDFDNAVLLGYRETGEPRIAVPVAVAEDQLASHYKLADARTLYRDHLLDEELLSEVAQAVSLTHWNADNRFCGRCGGTMEQRIGGYKRICASCSHTIFPRTDPVVIMMTIDIERDLCLLGRGAHFASGMYSCLAGFVEPGETIEQAVRRETHEESGVEIGRVRYHASQPWPMPHTLMIGCYAEALSSDIARDEIELEDCRWFTREEVAKMLEAPAGEGFSAPPIGAIAHRLMRDWVEWPE”, which “soluble on expression in E. coli” value is on record?
**A.** not soluble

**Q.** For “MGSDKIHHHHHHMVATPNSSYISPEDYLKGEETSPIKHEYRQGQVYAMAGASNAHVIISLNIASMLRNHLRGSGCQAYISDTKVHIESINVYYYPDVTVSCDQRDRAFNNFLRYPCLIVEVLSPTTEAFDRGDKFADYRQMESLQEYVLISQTRLNVECFRRNPESQWVLYPYGKEDIIHLASVDFRCAVADFYEDVTFESL”, which “soluble on expression in E. coli” value is on record?
**A.** not soluble

**Q.** For “MPQYKLYYFNLRGWAEPARQLFKLAHVEFEDVRIENGTPEWGALKPKTPFGQLPFLSVDGFEIPQSAAILRYLAKKFGYAGKTSEEEAWVDAIVDQFKDFVTPLRQLIMAQRSGNAEEIERIQKEVFAPARDTFFKILNGILEKSKSGFLVGDGVTWADLVIADILTTMEMLGVFDKHGEEQKLAALREKVNEIPEIKEHNSSRPDSVV”, which “soluble on expression in E. coli” value is on record?
**A.** not soluble

**Q.** For “MIGGRLKSLRGKRTQEEIASHIGVSRARYSHYENGRSEPDYDTLQKLADYFQVTTDYLLTGKDKKSDDDMFSDPDLQLAYRDMQDFSPESKQQAIEFINYLKEKEKNRKPKNK”, which “soluble on expression in E. coli” value is on record?
**A.** not soluble

**Q.** For “MKLKLYLIPLLASGIILSACSSTTSQVISSLSSAQKYFEANKGELNKNNVINILKDGYNSDPNKTVNALLAGWKYTLMDQKLLENNLDPSRFKNTFGPNKNKDDVTPNISEKGLFLNETFTGLGSQIAEVFNVQKQIVSGFSYSWTSPKSFKVNIHIKMEGMINEKSKETIKSFLSNKDSNGSNSVEESEYTGDKAKFTADFIFSYTPPTGGTRSLTDKSFDVITNMINFPADVKIDVNTSHNKLNELLEKNDQVKRMKSRTFNGRNIDLLPFFYYALL”, which “soluble on expression in E. coli” value is on record?
**A.** soluble
